Measurements as given in patent US20170114111A1 (UNIVERSITY OF CAPE TOWN, published 2017).

Biological target: CD64 (human, UniProt P12314 16-374)
Assay: cell-based or functional assay

Sequence of CD64 (P12314 16-374): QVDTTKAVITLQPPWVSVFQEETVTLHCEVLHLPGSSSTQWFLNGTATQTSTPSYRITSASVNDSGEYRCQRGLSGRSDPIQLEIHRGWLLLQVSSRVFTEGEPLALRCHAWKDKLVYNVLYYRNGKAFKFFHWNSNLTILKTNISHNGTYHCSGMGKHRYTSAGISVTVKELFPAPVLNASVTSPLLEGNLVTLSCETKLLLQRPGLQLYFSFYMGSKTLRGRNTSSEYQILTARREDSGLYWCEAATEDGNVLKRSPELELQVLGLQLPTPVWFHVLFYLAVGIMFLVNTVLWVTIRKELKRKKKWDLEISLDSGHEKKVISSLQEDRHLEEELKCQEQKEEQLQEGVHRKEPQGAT

B1: H22-Ang GGRR/QGmut (other)
chain: DAAQPAMAQVQLVESGGGVVQPGRSLRLSCSSSGFIFSDNYMYWVRQAPGKGLEWVATISDGGSYTYYPDSVKGRFTISRDNSKNTLFLQMDSLRPEDTGVYFCARGYYRYEGAMDYWGQGTPVTVSSGGGGSGGGGSGGGGSDIQLTQSPSSLSASVGDRVTITCKSSQSVLYSSNQKNYLAWYQQKPGKAPKLLIYWASTRESGVPSRFSGSGSGTDFTFTISSLQPEDIATYYCHQYLSSWTFGQGTKLEIKAAALESRQDNSRYTHFLTQHYDAKPQGRDDRYCESIMRRRGLTSPCKDINTFIHGNKRSIKAICENKNGNPHRENLRISKSSFQVTTCKLHRRSPWPPCQYRATAGFRNVVVACENGLPVHLDGSIFRRPAEHEFRGGPEQKLISEEDLNSAVDHHHHHH
In the case of B1, the “IC50, XTT viability assay on IFNγ-stimulated CD64+ HL-60 cells” value is reported as 4.2 nM, the “IC50, XTT viability assay on activated human Mφ” value is reported as 0.075 nM and the “IC50, XTT viability assay on hIFNγ-stimulated HL-60 cells” value is reported as 4.3 nM.
